Measurements from paper PMC9900518.

Target: GST-BRCA1-CT-M1775R (BRCT), human BRCA1 BRCT domain residues 1599-1863 (human) (UniProt P38398)
Experiment: pull-down; GST-tagged protein immobilised on glutathione-Sepharose beads; purified recombinant His-tagged protein; binding buffer 50 mM Tris-HCl pH 7.4, 100 mM NaCl, 0.4% Nonidet P-40, 10 mM MgCl2, 5 mM EDTA, 2 mM DTT; anti-His immunoblot

How did the fold change of binding against GST-BRCA1 BRCT wild type turn out when “His-GIV-CT (aa 1660-1870) wild type (domain or fragment)” was run?
The fold change of binding against GST-BRCA1 BRCT wild type was 3 to 5 fold.
